Test results taken from US20220106405A1 (YEDA RESEARCH AND DEVELOPMENT, published 2022).

Key:
MMP-7 zymogen / pro form = target: T1, MMP-7 zymogen / pro form (UniProt P09237 18-267, limits assumed); assay: dot blot
T1 construct: domain: zymogen/pro form; Recombinant zymogen on the dot blot and in ELISA; also called MMP-7 pro form; zymogen form of the enzyme
T1 sequence (looked up): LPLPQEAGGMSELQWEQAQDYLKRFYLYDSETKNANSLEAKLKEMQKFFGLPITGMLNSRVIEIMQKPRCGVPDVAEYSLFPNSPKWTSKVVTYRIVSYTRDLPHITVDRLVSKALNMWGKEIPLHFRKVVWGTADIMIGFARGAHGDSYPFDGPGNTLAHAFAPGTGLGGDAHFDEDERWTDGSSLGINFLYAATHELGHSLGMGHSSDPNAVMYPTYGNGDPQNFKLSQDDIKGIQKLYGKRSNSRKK
Experimental: A dot blot was performed by immobilizing 1, 1.5 and 2 μg zymogen and activated MMP-7 recombinant enzyme on nitrocellulose membrane pre wetted with TBST using a vacuum based manifold 96 well dot-blot system (GE 10447900 Minifold dot blot). The blocking was performed for 1 hour at room temperature with 3% BSA in TBST. The membrane was then probed for binding by antibody eluted in the earlier step by incubating overnight. The anti MMP-7 mAb used was at 2 ug/ml concentration in TBST. The membrane after 3 washes in TBST was incubated with goat anti mouse HRP antibody and developed using ECL to determine the selectivity of binding towards catalytic form only.
Only antibodies that were capable of binding to the activated form of MMP-7 and not the zymogen were selected for further development (i.e. selected for fusion and developed to generate monoclonal antibodies). This was carried out by dot blot analysis using a nitrocellulose membrane coated with varying concentrations of active MMP-7 and its zymogen respectively.

MMP-14 = MMP-14 (UniProt P50281 112-538, limits assumed); assay: ELISA, MMP-coated plate
Experimental: (§1) MMP-7 Elisa binding assay: A 96-well plate (Nunc) was coated with MMP at 5 mg/ml. […] The bound Fab fragment/full length was detected using a goat anti-Fab/anti-mouse antibody followed by peroxidase-conjugated bovine anti-goat antibody according to standard procedures. A four-parametric sigmoidal curve-fitting analysis was used to calculate the half-maximal effective concentration.
(§2) The lack of binding to a panel of other MMPs helped measure the novel antibody's affinity to epitopes specifically unique to MMP-7.

MMP-13 = MMP-13 (UniProt P45452 104-471, limits assumed); assay: ELISA, MMP-coated plate
Experimental: as §1, §2

MMP-9 = MMP-9 (UniProt P14780 107-707, limits assumed); assay: ELISA, MMP-coated plate
Experimental: as §1, §2

MMP-12 = MMP-12 (UniProt P39900 106-263, limits assumed); assay: ELISA, MMP-coated plate
Experimental: as §1, §2

[1] = target: T2, recombinant human MMP-7 activated form (catalytic domain) (human, UniProt P09237 95-267); assay: ELISA on MMP-coated plate, four-parametric sigmoidal fit
T2 construct: domain: catalytic domain; Contains the catalytic zinc; also called MMP-7 active enzyme
T2 sequence (looked up): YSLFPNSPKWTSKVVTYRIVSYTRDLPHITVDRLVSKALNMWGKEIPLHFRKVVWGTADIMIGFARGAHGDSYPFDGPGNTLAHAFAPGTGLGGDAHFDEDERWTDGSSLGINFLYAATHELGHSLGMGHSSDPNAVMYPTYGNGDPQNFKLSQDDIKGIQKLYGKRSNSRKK
Experimental: as §1, §2

[2] = target: T2, recombinant human MMP-7 activated form …; assay: enzyme inhibition, fluorogenic peptide Mca-Pro-Leu-Gly-Leu-Dpa-Ala-Arg-NH2, 10 nM MMP-7, 37 C
Experimental: The enzymatic reaction was initiated by addition of the fluorogenic peptide to a final concentration of 10 μM. Fluorescence was recorded immediately and continuously for 30 min.
Remarkably, considering that the immunization booster also included the common zinc motif, the antibody is fully selective for MMP-7. […] Simultaneously the effect of the antibody on catalytic activity of related MMPs was measured. The catalytic activities in vitro of MMP-9, -14 and -12 were either not affected or in the case of MMP-14 only negligibly affected by the anti MMP-7 Fab treatment (FIG. 2D).

Chain of MMP-12 (P39900 106-263 limits assumed): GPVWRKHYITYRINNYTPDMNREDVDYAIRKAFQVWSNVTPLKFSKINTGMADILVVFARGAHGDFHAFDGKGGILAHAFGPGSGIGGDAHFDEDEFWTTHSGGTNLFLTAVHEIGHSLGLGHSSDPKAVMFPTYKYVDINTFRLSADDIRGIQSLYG
Chain of MMP-9 (P14780 107-707 limits assumed): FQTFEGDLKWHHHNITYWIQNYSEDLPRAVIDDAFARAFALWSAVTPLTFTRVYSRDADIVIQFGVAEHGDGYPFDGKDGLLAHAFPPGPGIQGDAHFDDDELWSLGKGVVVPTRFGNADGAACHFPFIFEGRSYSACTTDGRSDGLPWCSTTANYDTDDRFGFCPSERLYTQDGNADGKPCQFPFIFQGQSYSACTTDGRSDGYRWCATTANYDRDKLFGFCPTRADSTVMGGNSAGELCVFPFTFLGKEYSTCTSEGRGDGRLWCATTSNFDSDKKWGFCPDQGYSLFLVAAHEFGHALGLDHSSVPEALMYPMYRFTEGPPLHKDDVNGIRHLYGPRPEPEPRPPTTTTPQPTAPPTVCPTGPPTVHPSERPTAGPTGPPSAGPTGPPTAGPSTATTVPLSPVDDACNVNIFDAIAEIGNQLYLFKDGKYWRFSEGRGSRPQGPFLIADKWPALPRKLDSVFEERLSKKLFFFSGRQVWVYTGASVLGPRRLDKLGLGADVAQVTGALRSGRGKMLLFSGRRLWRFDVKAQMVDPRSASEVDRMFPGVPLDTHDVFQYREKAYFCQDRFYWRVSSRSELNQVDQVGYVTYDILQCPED

B1: GSM-192 monoclonal antibody (antibody, V domains shown)
VH: EVQLQQSGPELVKPGASVKIPCKASGYTFTDYNMDWMKQSHGKSLEWIGHINPNNGGTFYNQKFKDKATFIVDKSSNTAYMELRSLTSEDTAVYFCARGGGLRRGPFAYWGQGTLVTVS
VL: DIVTQSPASLAVSLGQRATISCRASESFDSYGNTFVHWYQQKPGQPPKLLIYLVSNLESGVPAGFRGRGSRTDFTLTIDPVEADDAATYYCQQNNEDPYTFGGGTKLEIKR
notes: also called anti MMP-7 mAb; anti MMP-7 Ab
B1: no binding (MMP-7 zymogen / pro form); no binding (MMP-14); no binding (MMP-13). The binding result (MMP-9) was “no binding”, the binding result (MMP-12) was “no binding” and the Kd [1] was 43.1 nM.

B2: GSM-192 Fab fragment (Fab, V domains shown)
VH: B1 VH
VL: B1 VL
notes: also called anti MMP-7 Fab
For B2, the Ki [2] was 132 nM.
